In paper PMC10841698 (Cell, 2023):
Like-named read-outs stand apart in the source and are kept apart here.

Columns and labels:
[1] = molecular target: T1, endogenous calreticulin (CALR) of HEK293 cells (human (endogenous in HEK293S GnTI-), UniProt P27797 18-417); experiment: cryo-EM structure
T1 sequence (looked up): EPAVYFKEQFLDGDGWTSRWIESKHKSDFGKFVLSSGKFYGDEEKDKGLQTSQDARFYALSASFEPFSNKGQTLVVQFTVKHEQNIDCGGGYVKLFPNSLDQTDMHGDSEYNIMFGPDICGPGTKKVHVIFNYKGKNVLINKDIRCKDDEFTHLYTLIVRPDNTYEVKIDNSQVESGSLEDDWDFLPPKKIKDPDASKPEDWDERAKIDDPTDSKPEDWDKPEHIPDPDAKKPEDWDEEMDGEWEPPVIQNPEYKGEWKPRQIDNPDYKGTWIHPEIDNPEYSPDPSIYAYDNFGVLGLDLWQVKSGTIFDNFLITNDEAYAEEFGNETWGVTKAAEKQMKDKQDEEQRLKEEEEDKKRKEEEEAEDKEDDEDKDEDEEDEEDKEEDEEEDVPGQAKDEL

[2] = molecular target: T2, human Wntless (WLS) with a C-terminal Flag tag (human, UniProt Q5T9L3 1-541); experiment: cryo-EM structure
T2 sequence: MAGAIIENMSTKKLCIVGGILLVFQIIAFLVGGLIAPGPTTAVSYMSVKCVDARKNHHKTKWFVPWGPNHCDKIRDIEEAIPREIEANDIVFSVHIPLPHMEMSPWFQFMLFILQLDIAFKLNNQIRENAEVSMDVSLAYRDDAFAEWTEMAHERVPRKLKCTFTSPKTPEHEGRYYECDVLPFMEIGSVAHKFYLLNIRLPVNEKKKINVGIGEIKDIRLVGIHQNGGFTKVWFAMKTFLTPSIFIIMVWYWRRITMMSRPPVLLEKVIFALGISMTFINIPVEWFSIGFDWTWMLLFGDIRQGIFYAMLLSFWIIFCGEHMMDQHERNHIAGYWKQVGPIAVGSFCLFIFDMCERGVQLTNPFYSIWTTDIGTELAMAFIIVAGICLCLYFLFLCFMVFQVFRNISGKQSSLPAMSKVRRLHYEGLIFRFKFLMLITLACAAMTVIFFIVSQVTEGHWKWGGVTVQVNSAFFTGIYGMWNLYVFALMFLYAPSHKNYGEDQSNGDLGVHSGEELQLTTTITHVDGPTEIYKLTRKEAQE

[3] = molecular target: T3, human full-length RECK without a tag (human, UniProt O95980 23-942); experiment: cryo-EM structure
T3 sequence (looked up): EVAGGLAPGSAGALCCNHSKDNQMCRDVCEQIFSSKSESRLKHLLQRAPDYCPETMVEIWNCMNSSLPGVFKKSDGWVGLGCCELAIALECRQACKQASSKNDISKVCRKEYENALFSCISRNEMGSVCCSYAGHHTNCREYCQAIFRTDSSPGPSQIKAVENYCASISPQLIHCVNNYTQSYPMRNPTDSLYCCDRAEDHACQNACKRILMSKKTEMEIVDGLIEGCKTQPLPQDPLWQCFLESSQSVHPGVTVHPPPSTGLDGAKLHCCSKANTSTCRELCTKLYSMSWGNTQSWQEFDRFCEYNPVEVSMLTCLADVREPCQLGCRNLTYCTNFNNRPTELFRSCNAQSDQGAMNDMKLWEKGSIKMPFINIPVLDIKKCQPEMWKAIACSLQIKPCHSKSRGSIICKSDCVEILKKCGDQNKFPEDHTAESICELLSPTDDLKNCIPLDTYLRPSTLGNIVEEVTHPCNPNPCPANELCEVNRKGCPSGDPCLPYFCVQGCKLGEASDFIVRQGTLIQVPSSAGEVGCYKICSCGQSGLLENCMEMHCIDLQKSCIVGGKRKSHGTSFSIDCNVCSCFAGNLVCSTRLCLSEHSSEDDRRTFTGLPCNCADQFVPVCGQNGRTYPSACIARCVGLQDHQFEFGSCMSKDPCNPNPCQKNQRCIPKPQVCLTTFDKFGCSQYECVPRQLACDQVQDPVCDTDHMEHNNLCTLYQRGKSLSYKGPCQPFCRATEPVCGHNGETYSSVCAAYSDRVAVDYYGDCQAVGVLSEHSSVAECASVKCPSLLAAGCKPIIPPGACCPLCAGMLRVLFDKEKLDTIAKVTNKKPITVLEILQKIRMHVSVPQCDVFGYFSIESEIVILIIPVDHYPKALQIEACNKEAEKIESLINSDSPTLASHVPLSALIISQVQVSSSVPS

[4] = molecular target: T1, endogenous calreticulin (CALR) of …; experiment: cryo-EM structure; remark: listed apart in the source
[5] = molecular target: T2, human Wntless (WLS) with a C-terminal …; experiment: co-IP

B1: human Wnt3a without a tag (ligand, UniProt P56704 19-352, looked up)
chain: SYPIWWSLAVGPQYSSLGSQPILCASIPGLVPKQLRFCRNYVEIMPSVAEGIKIGIQECQHQFRGRRWNCTTVHDSLAIFGPVLDKATRESAFVHAIASAGVAFAVTRSCAEGTAAICGCSSRHQGSPGKGWKWGGCSEDIEFGGMVSREFADARENRPDARSAMNRHNNEAGRQAIASHMHLKCKCHGLSGSCEVKTCWWSQPDFRAIGDFLKDKYDSASEMVVEKHRESRGWVETLRPRYTYFKVPTERDLVYYEASPNFCEPNPETGSFGTRDRTCNVSSHGIDGCDLLCCGRGHNARAERRREKCRCVFHWCCYVSCQECTRVYDVHTCK
modifications: palmitoleate moiety (PAM); N-glycan at Asn298
[1]
  binding result: binds
[2]
  binding result: binds

B2: human Wnt7a with a C-terminal GG linker and 6xHis tag (ligand, UniProt O00755 32-349, looked up)
chain: LGASIICNKIPGLAPRQRAICQSRPDAIIVIGEGSQMGLDECQFQFRNGRWNCSALGERTVFGKELKVGSREAAFTYAIIAAGVAHAITAACTQGNLSDCGCDKEKQGQYHRDEGWKWGGCSADIRYGIGFAKVFVDAREIKQNARTLMNLHNNEAGRKILEENMKLECKCHGVSGSCTTKTCWTTLPQFRELGYVLKDKYNEAVHVEPVRASRNKRPTFLKIKKPLSYRKPMDTDLVYIEKSPNYCEEDPVTGSVGTQGRACNKTAPQASGCDLMCCGRGYNTHQYARVWQCNCKFHWCCYVKCNTCSERTEMYTCK
modifications: palmitoleate moiety (PAM) on the conserved serine of hairpin 2; N-glycan at Asn295
[3]
  binding result: binds
[4]
  binding result: binds

B3: human Wnt7a with a C-terminal GG linker and Strep tag (ligand, UniProt O00755 32-349, looked up)
chain: B2 chain
modifications: palmitoleate moiety (PAM) on the conserved serine of hairpin 2; N-glycan at Asn295
[5]
  binding result: binds
